Laboratory results reported in PMC8857470, “Molecular insights into the maturation of phosphodiesterase 6 by the specialized chaperone complex of HSP90 with AIPL1” (The Journal of Biological Chemistry, 2022).
“And” between values parts separate entries of the source, which are not always exact repeats. Equal values may be shown once.

Legend:
Conditions in all cases: both partners purified
[1] = molecular target: T1, Avi-tagged HSP90β (full-length human HSP90β, residues 1–724) (human, UniProt P08238 1-724, biotin (in vivo biotinylation, N-terminally biotinylated)); assay: BLI; apo HSP90: biotinylated Avi-tagged HSP90β on streptavidin sensors, AIPL1 in solution; Octet RED96, 26 °C, 25 mM Tris, 200 mM NaCl, 2.5% glycerol, 1 mM TCEP, 0.5 mg/ml BSA, pH 7.5; 1:1 kinetic fit (KD = koff/kon) and steady-state fit
T1 construct: HSP90β, human, residues 1-724, cDNA isolated from HEK293T cells; Modified pET21a vector: N-terminal His6-tag, then the Avi tag, then a TEV cleavage site; Used apo (open state) or after incubation with AMPPNP (closed state); the two states are told apart by the assay; Host surmised to be E. coli; also called His6-Avi-tagged HSP90β; N-terminally biotinylated hHSP90B; source: cells grown in TB media …

[2] = molecular target: T1, Avi-tagged HSP90β (full-length human …); assay: BLI; HSP90_(AMPPNP) (closed state): biotinylated Avi-tagged HSP90β on streptavidin sensors, AIPL1 or mutants in solution; Octet RED96, 26 °C, 25 mM Tris, 200 mM NaCl, 2.5% glycerol, 1 mM TCEP, 0.5 mg/ml BSA, pH 7.5; 1:1 kinetic fit (KD = koff/kon) and steady-state fit
[3] = molecular target: T2, full-length human HSP90β (residues 1–724), pET15b construct (human, UniProt P08238 1-724); assay: cross-linking + other: mass photometry; DSS (0.5 mM) or glutaraldehyde (0.03%) added to HSP90β (15 μM), AIPL1 (25 μM) or their mixture (HSP90_(AMPPNP)/AIPL1), 15 to 30 min at 25 °C, 25 mM Hepes pH 7.5, 200 mM NaCl, 5% glycerol, 1 mM TCEP; products on 3 to 8% Tris-acetate gel and by mass photometry
T2 construct: HSP90β, human, residues 1-724, cDNA isolated from HEK293T cells; Cloned into pET15b through Nco1-Nde1 sites; Host surmised to be E. coli; also called apo HSP90; HSP90_(AMPPNP); source: purified by SEC
T2 sequence (P08238 whole entry, the tested form may be a part): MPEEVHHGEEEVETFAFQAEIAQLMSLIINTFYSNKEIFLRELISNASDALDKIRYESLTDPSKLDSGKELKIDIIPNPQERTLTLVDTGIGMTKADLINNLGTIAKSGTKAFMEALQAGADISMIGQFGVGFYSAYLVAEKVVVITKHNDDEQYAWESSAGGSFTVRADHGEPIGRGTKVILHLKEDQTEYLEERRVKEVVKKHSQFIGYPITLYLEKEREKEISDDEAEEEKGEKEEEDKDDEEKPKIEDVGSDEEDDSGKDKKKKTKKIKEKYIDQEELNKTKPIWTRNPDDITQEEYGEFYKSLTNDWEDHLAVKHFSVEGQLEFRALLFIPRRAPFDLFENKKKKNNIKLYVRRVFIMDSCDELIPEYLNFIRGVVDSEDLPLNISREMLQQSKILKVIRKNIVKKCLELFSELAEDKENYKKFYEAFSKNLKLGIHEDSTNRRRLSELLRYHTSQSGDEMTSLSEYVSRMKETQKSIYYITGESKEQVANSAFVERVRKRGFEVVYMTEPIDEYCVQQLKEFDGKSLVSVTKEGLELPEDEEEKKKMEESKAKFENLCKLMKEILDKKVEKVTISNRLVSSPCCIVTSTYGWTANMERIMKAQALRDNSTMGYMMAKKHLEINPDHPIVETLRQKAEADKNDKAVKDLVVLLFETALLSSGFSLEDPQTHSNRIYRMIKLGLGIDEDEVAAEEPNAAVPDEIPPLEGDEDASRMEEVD

T1 sequence (P08238 whole entry, the tested form may be a part): as above

B1: full-length mouse AIPL1 (aa 1–328) (natural protein, UniProt Q924K1 1-328, looked up)
chain: MDVSLLLNVEGVKKTILHGGTGELPSFITGSRVTFHFRTMKCDDERTVIDDSKQVGQPMSIIIGNMFKLEVWETLLTSMRLGEVAEFWCDTIHTGVYPMLSRSLRQVAEGKDPTSWHVHTCGLANMFAYHTLGYEDLDELQKEPQPLVFLIELLQVEAPNEYQRETWNLNNEERMQAVPLLHGEGNRLYKLGRYDQAATKYQEAIVCLRNLQTKEKPWEVEWLKLEKMINTLILNYCQCLLKKEEYYEVLEHTSDILRHHPGIVKAYYMRARAHAEVWNAEEAKADLEKVLELEPSMRKAVLRELRLLESRLADKQEEERQRCRSMLG
notes: also called wt AIPL1; source: E. coli BL21-(DE3), purified (Ni-NTA, Mono Q5, SEC)
For B1, the Kd [1] was ~17 µM and 32 µM and 33 µM, the koff [1] was 1.2 s⁻¹ and the kon [1] was 71000 M⁻¹ s⁻¹. It also gave a Kd [2] of 4.8 µM, a koff [2] of 0.32 s⁻¹ and a kon [2] of 150000 M⁻¹ s⁻¹. For the same binder, the “stoichiometry N” value [3] was 0.5 AIPL1 per HSP90 chain (1:2).

B2: AIPL1_(1–316) (domain or fragment, mouse, UniProt Q924K1 1-316, looked up)
chain: MDVSLLLNVEGVKKTILHGGTGELPSFITGSRVTFHFRTMKCDDERTVIDDSKQVGQPMSIIIGNMFKLEVWETLLTSMRLGEVAEFWCDTIHTGVYPMLSRSLRQVAEGKDPTSWHVHTCGLANMFAYHTLGYEDLDELQKEPQPLVFLIELLQVEAPNEYQRETWNLNNEERMQAVPLLHGEGNRLYKLGRYDQAATKYQEAIVCLRNLQTKEKPWEVEWLKLEKMINTLILNYCQCLLKKEEYYEVLEHTSDILRHHPGIVKAYYMRARAHAEVWNAEEAKADLEKVLELEPSMRKAVLRELRLLESRLADKQ
notes: source: E. coli BL21-(DE3), purified (Ni-NTA, Mono Q5, SEC)
With B2 the Kd [2] was 27 µM.

B3: AIPL1-Δα3 (Δ111–132) (natural protein, mouse)
chain: MDVSLLLNVEGVKKTILHGGTGELPSFITGSRVTFHFRTMKCDDERTVIDDSKQVGQPMSIIIGNMFKLEVWETLLTSMRLGEVAEFWCDTIHTGVYPMLSRSLRQVAEGGGGGGGYEDLDELQKEPQPLVFLIELLQVEAPNEYQRETWNLNNEERMQAVPLLHGEGNRLYKLGRYDQAATKYQEAIVCLRNLQTKEKPWEVEWLKLEKMINTLILNYCQCLLKKEEYYEVLEHTSDILRHHPGIVKAYYMRARAHAEVWNAEEAKADLEKVLELEPSMRKAVLRELRLLESRLADKQEEERQRCRSMLG
notes: AIPL1, mouse, residues before the replaced stretch 111-132; five glycine residues that replace residues 111 to 132 of AIPL1 (told in words); AIPL1, mouse, residues after the replaced stretch 111-132, to the end of the full-length protein (aa 328); also called AIPL1-Δα3 (loop deletion); α3-helix deletion; source: E. coli BL21-(DE3), purified (Ni-NTA, Mono Q5, SEC)
B3: binds [2].
